Molecular target: T1, p53-382 acetylated peptide (Fluor de Lys-SIRT1), RHKK(Ac)
T1 chain: RHKK

B1: recombinant human SIRT1 (protein)
chain: MADEAALALQPGGSPSAAGADREAASSPAGEPLRKRPRRDGPGLERSPGEPGGAAPEREVPAAARGCPGAAAAALWREAEAEAAAAGGEQEAQATAAAGEGDNGPGLQGPSREPPLADNLYDEDDDDEGEEEEEAAAAAIGYRDNLLFGDEIITNGFHSCESDEEDRASHASSSDWTPRPRIGPYTFVQQHLMIGTDPRTILKDLLPETIPPPELDDMTLWQIVINILSEPPKRKKRKDINTIEDAVKLLQECKKIIVLTGAGVSVSCGIPDFRSRDGIYARLAVDFPDLPDPQAMFDIEYFRKDPRPFFKFAKEIYPGQFQPSLCHKFIALSDKEGKLLRNYTQNIDTLEQVAGIQRIIQCHGSFATASCLICKYKVDCEAVRGDIFNQVVPRCPRCPADEPLAIMKPEIVFFGENLPEQFHRAMKYDKDEVDLLIVIGSSLKVRPVALIPSSIPHEVPQILINREPLPHLHFDVELLGDCDVIINELCHRLGGEYAKLCCNPVKLSEITEKPPRTQKELAYLSELPPTPLHVSEDSSSPERTSPPDSSVIVTLLDQAAKSNDDLDVSESKGCMEEKPQEVQTSRNVESIAEQMENPDLKNVGSSTGEKNERTSVAGTVRKCWPNRVAKEQISRRLDGNQYLFLPPNRYIFHGAEVYSDSEDDVLSSSSCGSNSDSGTCQSPSLEEPMEDESEIEEFYNGLEDEPDVPERAGGAGFGTDGDDQEAINEAISVKQEVTDMNYPSNKS
- Km (+100 µM resveratrol), SIRT1 initial rate vs p53-382 acetylated peptide concentration at 3 mM NAD+: Km(+resveratrol, Δ)=1.8 µM
- Km (control), SIRT1 initial rate vs p53-382 acetylated peptide concentration at 3 mM NAD+: Km(control, ▪)=64 µM
- fold decrease of the acetylated peptide Km with 100 µM resveratrol: Its effect on the acetylated peptide Km was particularly striking, amounting to a 35-fold decrease

Source: US20060084135
